# From patent US20150104459A1
# B1: TCN-553 (5261_C18) (antibody, V domains shown)
# VH: QVQVVQSGTEVKKPGSSVKVSCQTSGGRFMSYAITWVRQAPGQGLEWMGGIVPVFGTANYAQKFQGRVTITTDDSTRTAYMELSSLRSEDTAVYYCGFRYGSGYGFDSWGQGTLVTVSS
# VL: EIVLTQSPGTLSLSPGERATLSCRASQSVSSSYLAWYQKKPGQAPRLLIYGASTRATGIPDRFTGSGSGTDFTLSISRLEPEDFAVYYCQHFGTSVFTFGGGTKVEIK
# B2: TCN-549 (5092_P04) (antibody, V domains shown)
# VH: QVQLVQSGAEVKKPGASVKVSCKASGYTFTGYYMHWVRQAPGQGLEWMGWINPNSGDTNYAQKFQGRVTMTRDTSITTAYMELSSLRSDDTAVYYCARDSPYSSSWSFFDYWGQGPLVTVSS
# VL: not shown
# B3: TCN-552 (5249_I23) (antibody, V domains shown)
# VH: QVQVVQSGAEVKKPGSSVRVSCQASGGTFMNYAIIWVRRAPGQGLEWMGGIIPVFPTPNYAQMFQGRVTISTDESRSTSFLELTNLRYEDTAVYYCARRIYHGGNSGFDFWGQGTLVTVSS
# VL: EIVLTQSPATLSLSPGERATLSCRASQSVGNYLAWYQQKPGQAPRLLIYDSSNRAPGIPARFSGSGSGTDFTLTISSLAPEDFAVYYCQQRSKWPPMYSFGHGTKLEIK
# B4: TCN-532 (5262_H18) (antibody, V domains shown)
# VH: QVQLQESGPGLVKPSETLSLTCTVSGGSVSSETYYWSWIRQPPGKGLEWIGYIYYIGNTDYRPSLKSRVTISLDTSKNQFSLKLSSVTAADTAVYYCARGAYYDSSGYPAFYIWGQGTMVTVSS
# VL: QSVLTQPPSVSGAPGQRVTISCTGSSSNIGSDYDVHWYKQLPGTAPKLLIFGNSNRPSGVPDRFSGSKSGTSASLAITGLQAEDEADYYCQSYDSSLSGFHVFGSGTKVTVL
# B5: TCN-536 (5095_N01) (antibody, V domains shown)
# VH: QVQLQQWGAGLLKPSETLSLTCAVYGGSFSVSGYYWSWIRQPPGRGLEWIGEISHGGSTNYNPSLKSRVTISVDTTKNQFSLRLSSVTAADTAVYYCARGTDPDTEVYCRVGNCAAFDYWGQGSLVTVSS
# VL: EIILAQSPGTLSLSPGERATLSCRASQFVSTRSLAWYQQRPGQAPRLLIYGASSRATGIPDRFSGSGSGTDFTLTISRLEPEDFAVYYCQHYGYSPRYAFGQGSKVEIK
# Columns and labels:
# Conditions in all cases: remark: other sources report otherwise
# [1] = target: recombinant soluble homotrimeric HA, A/duck/Yangzhou/02/2005 (H8N4) (influenza A virus A/duck/Yangzhou/02/2005 (H8N4)); experiment: microarray, trimeric HA, transfection supernatant
# [2] = target: recombinant soluble homotrimeric HA, A/Anhui/1/05 (H5N1) (influenza A virus A/Anhui/1/2005 (H5N1)); experiment: microarray, trimeric HA, transfection supernatant
# [3] = target: recombinant soluble homotrimeric HA, A/Hong Kong/156/97 (H5N1) (influenza A virus A/Hong Kong/156/97 (H5N1)); experiment: microarray, trimeric HA, transfection supernatant
# [4] = target: recombinant soluble homotrimeric HA, A/northern shoveler/California/HKWF115/2007 (H6N1) (influenza A virus A/northern shoveler/California/HKWF115/2007 (H6N1)); experiment: microarray, trimeric HA, transfection supernatant
# [5] = target: recombinant soluble homotrimeric HA, A/chicken/Vietnam/NCVD-016/08 (H5N1) (influenza A virus A/chicken/Vietnam/NCVD-016/2008 (H5N1)); experiment: microarray, trimeric HA, transfection supernatant
# [6] = target: recombinant soluble homotrimeric HA of A/Solomon Islands/3/06 (H1N1) (Influenza A virus A/Solomon Islands/3/2006 (H1N1)); experiment: HA microarray, BCC supernatant
# [7] = target: recombinant soluble homotrimeric HA of A/Wisconsin/67/05 (H3N2) (Influenza A virus A/Wisconsin/67/2005 (H3N2)); experiment: HA microarray, BCC supernatant
# [8] = target: recombinant soluble homotrimeric HA of A/Vietnam/1203/04 (H5N1) (Influenza A virus A/Vietnam/1203/2004 (H5N1)); experiment: HA microarray, BCC supernatant
# [9] = target: recombinant soluble homotrimeric HA of A/California/4/09 (H1N1) (Influenza A virus A/California/04/2009 (H1N1)); experiment: HA microarray, BCC supernatant
# [10] = target: recombinant soluble homotrimeric HA of A/chicken/Vietnam/NCVD-016/08 (H5N1) (Influenza A virus A/chicken/Vietnam/NCVD-016/2008 (H5N1)); experiment: HA microarray, BCC supernatant
# [11] = target: recombinant soluble homotrimeric HA of A/Egypt/3300-NAMRU3/08 (H5N1) (Influenza A virus A/Egypt/3300-NAMRU3/2008 (H5N1)); experiment: HA microarray, BCC supernatant
# [12] = target: recombinant soluble homotrimeric HA of A/swine/Ontario/01911-2/99 (H4N6) (Influenza A virus A/Swine/Ontario/01911-2/99 (H4N6)); experiment: HA microarray, BCC supernatant
# [13] = target: recombinant soluble homotrimeric HA of A/Japan/305/57 (H2N2) (Influenza A virus A/Japan/305/1957 (H2N2)); experiment: HA microarray, BCC supernatant
# [14] = target: recombinant soluble homotrimeric HA of A/Indonesia/5/05 (H5N1) (Influenza A virus A/Indonesia/5/2005 (H5N1)); experiment: HA microarray, BCC supernatant
# [15] = target: recombinant soluble homotrimeric HA of A/Anhui/1/05 (H5N1) (Influenza A virus A/Anhui/1/2005 (H5N1)); experiment: HA microarray, BCC supernatant
# [16] = target: recombinant soluble homotrimeric HA of A/duck/Yangzhou/02/2005 (H8N4) (Influenza A virus A/duck/Yangzhou/02/2005 (H8N4)); experiment: HA microarray, BCC supernatant
# [17] = target: recombinant soluble homotrimeric HA of A/northern shoveler/California/HKWF115/2007 (H6N1) (Influenza A virus A/northern shoveler/California/HKWF115/2007 (H6N1)); experiment: HA microarray, BCC supernatant
# [18] = target: recombinant soluble homotrimeric HA of A/Netherlands/219/03 (H7N7) (Influenza A virus A/Netherlands/219/03 (H7N7)); experiment: HA microarray, BCC supernatant
Binder,Trimeric HA Binding RLU [1],Trimeric HA Binding RLU [2],Trimeric HA Binding RLU [3],Trimeric HA Binding RLU [4],Trimeric HA Binding RLU [5],Trimeric HA Binding RLU [6],Trimeric HA Binding RLU [7],Trimeric HA Binding RLU [8],Trimeric HA Binding RLU [9],Trimeric HA Binding RLU [10],Trimeric HA Binding RLU [11],Trimeric HA Binding RLU [12],Trimeric HA Binding RLU [13],Trimeric HA Binding RLU [14],Trimeric HA Binding RLU [15],Trimeric HA Binding RLU [16],Trimeric HA Binding RLU [17],Trimeric HA Binding RLU [18]
B1,12500 RLU,8550 RLU,36300 RLU,32500 RLU,34700 RLU,16300 RLU,20000 RLU,6560 RLU,20300 RLU,24200 RLU,18800 RLU,2580 RLU,25500 RLU,24400 RLU,12600 RLU,28000 RLU,21700 RLU,
B2,9450 RLU,,,996 RLU,1600 RLU,284 RLU,30900 RLU,,338 RLU,498 RLU,,,387 RLU,,,,,
B3,15900 RLU,,36300 RLU,43900 RLU,34500 RLU,39300 RLU,14800 RLU,2730 RLU,35300 RLU,46200 RLU,40000 RLU,,23800 RLU,43600 RLU,4160 RLU,13100 RLU,38400 RLU,
B4,,,,,,327 RLU,18000 RLU,,,46 RLU,,119 RLU,176 RLU,,,,511 RLU,327 RLU
B5,,,,,,,35000 RLU,,151 RLU,287 RLU,,79 RLU,121 RLU,,,,,
